# Measured values reported in the supplement of paper PMC10567573.
# B1: FAM107A (parent)
# chain: LQRVLEHRRRNQLIKKKKEELEAK
# B2: SERPINB5 (parent)
# chain: FPESETKECPFRVNKVCGAACSSK
# Variants of: B1
# Assay: protein stability index of a GFP-peptide fusion (GPS, HEK-293T) (PSI 1-6); higher = more stable
# Settings: c terminus: a fixed tail appended
# 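Note: lentivirally expressed fusions sorted by FACS into six bins by GFP to DsRed ratio, PSI derived from sequencing read proportions per bin multiplied by bin number.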
row,Variant,protein stability index
1,A23H,2.76
2,A23G,3.7
3,A23S,3.63
4,A23K,2.86
5,A23Q,3.87
6,A23I,2.75
7,A23D,3.75
8,A23M,3.39
9,A23N,3.56
10,A23C,2.98
11,A23E,4.14
12,A23R,3.48
13,A23L,3.99
14,A23T,3.11
15,A23V,3.03
16,A23Y,3.48
17,A23W,4.26
18,K24Y,2.62
19,K24H,3.33
20,K24T,3.97
21,K24Q,3.9
22,K24I,3.57
23,K24R,2.61

row,Variant,protein stability index
1,K24P,3.44
2,K24D,3.89
3,K24E,4.35
4,K24A,3.62
5,K24G,3.63
6,K24L,3.04
7,K24W,2.88
8,K24S,3.97
9,K24N,3.77
10,K24M,3.3
11,K24V,3.91
12,K24C,4.22
13,K24F,3.75
14,L21H,3.77
15,L21I,2.78
16,L21W,3.18
17,L21S,3.92
18,L21Q,3.48
19,L21K,2.99
20,L21R,4.14
21,L21M,3.32
22,L21V,3.36
23,L21N,4.16

row,Variant,protein stability index
1,L21T,3.74
2,L21P,3.46
3,L21Y,2.46
4,E22V,2.88
5,E22L,3.08
6,E22M,2.83
7,E22D,2.62
8,E22T,3.51
9,E22N,2.82
10,E22R,2.26
11,E22Q,3.59
12,E22Y,3.26
13,E22P,2.77
14,E22H,2.33
15,E22F,2.59
16,E22I,2.58
17,E22C,2.54
18,E22K,4.21
19,E22W,2.75
20,E22S,2.96
21,E22A,3.44
22,E22G,3.33

# Variants of: B2
# Assay: as above
# Settings: c terminus: a fixed tail appended
row,Variant,protein stability index
1,C21T,2.62
2,C21F,1.94
3,C21A,2.76
4,K7M,2.5
5,K7E,2.78
6,K7A,2.43
7,K15G,2.22
8,K15I,2.12
9,K15Y,2.4
10,K15H,4.17
11,S23G,2.4
12,S23N,2.96
13,S23M,2.39
14,N14Q,3.29
15,N14W,2.4
16,N14V,2.08
17,N14C,2.69
18,A20M,2.01
19,A20S,2.29
20,A20W,1.94
21,S4E,4.53
22,S4K,3.78
23,S4N,3.17
24,S4C,3.16
25,F1H,4.54

row,Variant,protein stability index
1,F1L,4.93
2,F1Y,3.41
3,F1T,2.73
4,F1D,5.41
5,V16Q,2.67
6,V16F,2.57
7,V16M,2.18
8,V16N,2.82
9,V16Y,2.14
10,E5M,2.35
11,E5D,1.92
12,E5I,1.8
13,E5L,1.78
14,E5Q,1.4
15,C9N,3
16,C9Q,4.03
17,C9G,2.82
18,C9H,1.83
19,C9T,2.64
20,C9Y,2.92
21,C9A,4.49
22,P2F,4.09
23,P2N,3.63
24,P2R,4.19
25,P2V,2.13

row,Variant,protein stability index
1,P2E,4.59
2,R12W,2.87
3,R12S,3.95
4,R12D,4.86
5,R12Q,3.36
6,R12H,3.83
7,R12K,3.57
8,R12F,3.56
9,G18S,3.42
10,G18F,2.09
11,G18A,2.65
12,G18M,2.56
13,G18N,2.59
14,F11T,4.45
15,F11N,5.12
16,E3S,1.47
17,E3F,1.75
18,E3G,1.88
19,K24F,2.02
20,K24C,3.31
21,K24Y,2.25
22,K24G,2.57
23,T6F,2.23
24,T6E,3.47
25,C17I,3.16

row,Variant,protein stability index
1,C17K,3.12
2,C17A,3.29
3,P10Q,3.58
4,P10D,4.78
5,P10E,4.31
6,A19L,2.96
7,A19K,2.51
8,A19N,2.61
9,A19Y,2.29
10,A19F,2.02
11,A19W,2.08
12,S22Q,2.66
13,S22F,1.66
14,S22P,2.67
15,S22T,2.39
16,S22M,2.4
17,S22I,2.27
18,V13E,4.17
19,V13Y,2.03
20,V13M,3.1
21,V13P,3.02
22,E8T,2.6
23,E8D,2.16
24,E8C,2.23
